Among the data in the supplement of paper PMC12042874 are amyloid nucleation score values, retold here.

A short description of this data set: amyloid nucleation score (Sup35N fusion, yeast selection) (log enrichment); library NNK2; higher = more nucleation; inactive = no reads after selection. The gist of the method: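 Sup35N was fused to peptides of 20 random codons and expressed in psi-negative yeast, which were induced with 100 μM copper sulfate for 24 hours and then grown on medium lacking adenine and uracil for 7 days at 30°C. Plasmid inserts from input and output were sequenced on Illumina. The nucleation score is the DiMSum log enrichment of output over input reads, centred on the mode score of non-aggregating sequences. Sequences with under 100 input reads were left out, and random libraries had three technical output replicates.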

± gives the uncertainty stated by the source.

In turn, ECLTG showed an amyloid nucleation score of -1.04 ± 0.44. The figure for FESFLTLYIIYTGAANNSWV is 4.01 ± 0.087.

In the case of VPSSEYFIVFVCRPLLIVSL, the amyloid nucleation score entry was “inactive”. The figure for RMNSYKLSKVYNT is -0.225 ± 1; for YDRKGIQCKRLAGPGQRHRS it is 0.244 ± 0.39. Then EVTWDVLAIVLTLMKKA, with 4.27 ± 0.083; and SRKPSILNLRLALVSG, with 0.43 ± 0.33. Then LIGCPLVDFTLYLCS, with “inactive”; and YIESIAECQSVRVGSIVDCF, with -1.33 ± 0.75. As for LLVRTYKLMMFHSLGIG, the amyloid nucleation score is -0.583 ± 1. For SRAKMVFNFGAWFSRVCKN, the amyloid nucleation score was 2.42 ± 0.088.

CITSSSLCSDPYLCLSAKNL: the amyloid nucleation score result was “inactive”.

CPFVATGDP gave an amyloid nucleation score of -0.849 ± 1.1. Then LCIFYNWRCV, with 6.76 ± 0.024. The figure for YTLDMIIELSLDDGGYVVWG is 4.756 ± 0.04; for FLMRDFGMWFLFSNLLYITL it is -0.628 ± 0.48. Then FMGRMTLGHKNAWVSSDRH, with -1.33 ± 0.79. Consider VRMSLTLSFQVLAYWEGFIK, for which the amyloid nucleation score is -0.64 ± 0.49.

NQNCLHTTCVCSRIVSDAAV came in with an amyloid nucleation score of 6.483 ± 0.038. Then LGEIVHLTVDASIRSSDR, with 5.13 ± 0.088. As to MLVVLWQSARRSVTIIKVRT, the amyloid nucleation score stood at 0.546 ± 0.5.

With LSRRMDMRSSTSALHVSIQL, the amyloid nucleation score amounted to 6.413 ± 0.064. The substance TYVHDPGFPLWLDMAKRFGL came in with an amyloid nucleation score of 0.581 ± 0.5.

DETYHKYDRFWLGVMSFGFY had an amyloid nucleation score of -0.787 ± 0.34. Then HFCVLLLSFKNKILNYAFMH, with -0.393 ± 1.1; and NLCRQVACTLLSLPSDTPRF, with 8.842 ± 0.03; and FNTCGSHRSGRRFL, with “inactive”. Then PCPSISGLFASAYPITRLSL, with -0.347 ± 0.24; and VTKSRRFSFLYYVESLHNRC, with 4.25 ± 0.048. Then FVHERASGIVMLRGISVRGP, with -0.327 ± 0.48. For VHRLRMGRVWFDKDSDVVGK, the amyloid nucleation score is 0.148 ± 1. Then LMRFSDVDY, with “inactive”. Then ASTFYMVGSIG, with 2.8 ± 0.083; and HFPHGHDFVFTVCYDTHSCL, with 0.729 ± 0.15; and TNISMLNDVGEGCFGERSLV, with -0.291 ± 0.54. The figure for ARCNCL is 0.559 ± 0.49. The substance PVCWAAFRYTYKARMKRWSK had an amyloid nucleation score of 5.06 ± 0.055. The entry for SSFFVAPGSSLLLIRLLCSS is “inactive”. The figure for GVKFQAAEAGPPGTYGTLGS is -0.031 ± 0.63; for ALPCRLISFFALVGWIVG it is -0.088 ± 0.49; for GLLAPLSSCLCVRDFVGLKA it is -0.187 ± 0.3.

AAAYCYRTEEW returned an amyloid nucleation score of 1.6 ± 0.22. The figure for CPDHNGRFGSWVGEYHVGLS is 1.43 ± 0.17.

In the case of SVYCSNNNTFDAFYVEWVFA, the amyloid nucleation score entry is “inactive”. Then SLLKNPASMCSNSIFCAYVG, with 8.708 ± 0.069.

On to HDTESTLVTVLRAFLHRCDY, for which the amyloid nucleation score worked out at 0.411 ± 0.56. Then VANEDDRYYTYGADWERLLL, with 0.844 ± 0.56.

WYYGLTPSQACGGEIPCDFQ had an amyloid nucleation score of 6.523 ± 0.056. The figure for NTSQDG is 5.15 ± 0.087; for QYWTNRCKDWERVSRKPLKL it is “inactive”; for FSKIIHDSALVNISWMHDGS it is 0.844 ± 0.56. The figure for YLNGSSTTVSYRCWAMACSN is -0.448 ± 0.76.

EWSRGLCTVQLA displayed an amyloid nucleation score of 0.058 ± 0.65. The substance FCGQKTNFNCLDETLLIR returned an amyloid nucleation score of 1.09 ± 0.59.

GVGRWIQCQDSWNTNRPSQP: the amyloid nucleation score came to 1.52 ± 0.27.

For YNIHYMNVLIGALHL, the amyloid nucleation score stood at 8.327 ± 0.056. Then TWGVLFAYSIEDCVGINYLG, with 0.73 ± 0.18; and SYILEFFHWIRSRLEYYGY, with -1.5 ± 0.76. The figure for ELNMRAYRKMSKGSYSKNSG is -0.462 ± 0.76; for KIEGHGFYYLFNWTA it is -0.833 ± 0.78; for MFGGPGGGRDRVMVGDVLLG it is 0.295 ± 1. Then SISCSADFVFNCSHGHNTVP, with 6.17 ± 0.069; and QRVMHTYYVS, with 0.073 ± 0.24; and VDISNFTVCRHAIKDLTFRV, with 0.149 ± 0.41. As to GVFSLRKGGCRDW, the amyloid nucleation score was -0.567 ± 1.1. In turn, MFTVRWASFCVVINSSY returned an amyloid nucleation score of 2.91 ± 0.069.

MLVSGSSLEW registered an amyloid nucleation score of 0.264 ± 0.42.

In turn, VCRDYGVMSMRRDWLCRMSL showed an amyloid nucleation score of 0.391 ± 0.65.

Substance ATDVCKKLWFALLVSVLVSS registered an amyloid nucleation score of 0.642 ± 0.48.

For the substance PVGEEVADVMLTFYKHHLVD, the amyloid nucleation score was -0.913 ± 1.1. The figure for QKMLLKIWIVDRNTYSAVLN is -0.425 ± 0.74; for KIKPLIIKNMCGNNTGPGIQ it is “inactive”; for RLQSSRSGVKAL it is 0.208 ± 0.8. Turning to GGHDCTVPDGFALGWYMTRG, the amyloid nucleation score worked out at 0.995 ± 0.51. The figure for PMCISLHVTTKGAMFNRGCF is 7.18 ± 0.057; for LSVAKPSSACRVKLWSPSVG it is 0.492 ± 0.56.

In the case of DLFLRYY, the amyloid nucleation score result is “inactive”.

In turn, WSPLSLVTIELLVQSVIDPF came in with an amyloid nucleation score of -0.351 ± 0.48. Consider NWKANYEFVRLIVVLLSSRR, for which the amyloid nucleation score turned out to be 0.202 ± 0.64. Take EYSNFVTNEYEWIVGPTWSS: the amyloid nucleation score was found to be 6.317 ± 0.026. The figure for DFCGRG is -0.152 ± 0.76. The figure for RTFLDIIGQTLLYVLVTVLA is 0.548 ± 0.46; for GREPESF it is 1.72 ± 0.13; for AIPSRPSFLKPQPRILFTIP it is -0.702 ± 0.39.

On to QFRAWWFTSVDRTPSDNHTV, for which the amyloid nucleation score was determined as 4.99 ± 0.059. The entry for NMRRYLIDMKGVEVLGFMCS is “inactive”; for TWMGVHVRSYHQHC it is 0.878 ± 0.42; for VCDVDTNVVTSNWTSCLFRK it is “inactive”. In the case of YIIPGLKFLS, the amyloid nucleation score entry was “inactive”. Then YRVVTSTVKMRLWSRGVYDH, with 3.07 ± 0.088; and FCNVKLLLVGWCRVSVKKGV, with 2.12 ± 0.28. Regarding NSCSWDSIITLVVQWLARQH, the amyloid nucleation score is 6.342 ± 0.039. The figure for SCRVME is 0.292 ± 0.2; for YSYILSFSSFFYFLRHCIKY it is “inactive”; for WCCLYDYFVDTGVLFIQDGS it is -0.186 ± 0.2.

IPFRFDMSRSFISSTFTVRI registered an amyloid nucleation score of -0.533 ± 0.63. RIGSGTGRPWN gave an amyloid nucleation score of -1.02 ± 0.39. The figure for GGMDNQCHLVRCGRRSLAPV is 1.65 ± 0.4; for IYFFSVF it is “inactive”.

With RRSWCLGFSRDLMSELKGIS, the amyloid nucleation score worked out at 1.4 ± 0.41.

Turning to CSKDMSQKLVYRLWSIIVMA, the amyloid nucleation score is -0.542 ± 0.33.
